Measurements reported in PMC8782398.
Several values for one entry are separate records, joined by “and”; a condition that tells them apart may be missing. Equal values may be shown once.

T1: human delta opioid peptide (DOP) receptor in CHO cells (human), P41143
T1 chain: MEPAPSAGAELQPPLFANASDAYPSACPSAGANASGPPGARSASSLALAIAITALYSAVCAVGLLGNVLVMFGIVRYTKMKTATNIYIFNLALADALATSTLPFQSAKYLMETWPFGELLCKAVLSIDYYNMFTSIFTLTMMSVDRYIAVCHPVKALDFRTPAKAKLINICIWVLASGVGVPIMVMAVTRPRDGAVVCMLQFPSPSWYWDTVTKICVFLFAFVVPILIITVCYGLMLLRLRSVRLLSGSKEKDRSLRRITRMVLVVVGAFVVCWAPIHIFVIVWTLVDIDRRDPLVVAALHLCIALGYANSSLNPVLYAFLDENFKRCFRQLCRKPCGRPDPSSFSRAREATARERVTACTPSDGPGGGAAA

B1: Dermorphin-UFP101 (De101) (peptide)
chain 1: YAFGYPS
chain 2: FGGFTGARKSARKRKNQC
modifications: not checked
B2: Dermorphin-Nociceptin/Orphanin FQ (DeNO) (peptide)
chain 1: YAFGYPS
chain 2: FGGFTGARKSARKLANQC
modifications: not checked

Legend:
[1] = biological target: human MOP receptor in HEK293 cells (human), P35372
[2] = biological target: T2, human mu opioid peptide (MOP) receptor in CHO cells (human), P35372
[3] = biological target: human MOP receptor in HEK293 cells (human), P35372; test: radioligand binding
[4] = biological target: T2, human mu opioid peptide (MOP) receptor …; test: radioligand binding
[5] = biological target: T1, human delta opioid peptide (DOP) …; test: radioligand binding
[6] = biological target: human KOP receptor in CHO cells (human), P41145; test: radioligand binding
human KOP receptor in CHO cells (human), P41145, sequence (P41145 whole entry): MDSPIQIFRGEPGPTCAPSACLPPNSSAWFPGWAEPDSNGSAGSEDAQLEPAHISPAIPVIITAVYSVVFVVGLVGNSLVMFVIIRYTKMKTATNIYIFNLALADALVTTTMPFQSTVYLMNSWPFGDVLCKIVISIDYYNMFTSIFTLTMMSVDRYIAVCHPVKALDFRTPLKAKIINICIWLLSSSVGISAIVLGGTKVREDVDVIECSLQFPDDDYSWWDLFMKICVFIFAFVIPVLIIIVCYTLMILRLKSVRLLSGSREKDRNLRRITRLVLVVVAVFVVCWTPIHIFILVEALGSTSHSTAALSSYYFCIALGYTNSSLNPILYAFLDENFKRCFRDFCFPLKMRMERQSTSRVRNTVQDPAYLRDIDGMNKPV

human MOP receptor in HEK293 cells (human), P35372, sequence (P35372 whole entry): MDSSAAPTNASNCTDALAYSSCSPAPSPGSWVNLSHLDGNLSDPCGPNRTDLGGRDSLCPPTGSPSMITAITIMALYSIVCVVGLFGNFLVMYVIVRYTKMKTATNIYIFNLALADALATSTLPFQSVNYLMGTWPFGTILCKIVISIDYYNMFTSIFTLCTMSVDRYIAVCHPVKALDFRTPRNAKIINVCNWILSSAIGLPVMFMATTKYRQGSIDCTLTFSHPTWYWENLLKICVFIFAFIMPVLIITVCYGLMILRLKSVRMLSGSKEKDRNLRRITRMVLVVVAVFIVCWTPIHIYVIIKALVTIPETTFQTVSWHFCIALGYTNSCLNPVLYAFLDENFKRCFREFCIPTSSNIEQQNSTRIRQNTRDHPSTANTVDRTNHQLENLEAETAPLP
T2 sequence (P35372 whole entry): as above

Binder | GTPγ[35S] binding, HEKMOP membranes: Emax (stimulation factor) (stimulation factor) [1] | inhibition of forskolin-stimulated cAMP formation, HEKMOP cells: Emax (% inhibition) [1] | GTPγ[35S] binding, CHOMOP membranes: maximal response (stimulation factor) (stimulation factor) [2] | other [3] | other [4] | other [5] | other [6]
B1 | 1.44 | 73.3% | 2.71 | 9.28 and 8.63 | 9.64 | 7.95 | 7.61
YAFGYPS (modifications not checked) [Dermorphin] | 1.43 | 75.6% | 2.63 |  |  |  | 
B2 | 1.53 | 77.3% |  | 9 and 8.44 |  |  | 
